Test results reported in patent US20090291081A1 (AbbVie / Abbott, published 2009).

T1: human IL-1α (human, UniProt P01583 113-271)
T1 sequence (looked up): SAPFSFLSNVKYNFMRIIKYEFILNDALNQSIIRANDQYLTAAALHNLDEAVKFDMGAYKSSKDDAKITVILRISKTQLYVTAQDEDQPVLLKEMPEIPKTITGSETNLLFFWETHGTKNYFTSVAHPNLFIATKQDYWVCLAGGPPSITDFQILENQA


Biological target: T1, human IL-1α
Assay: cell-based or functional assay

ND50 [nM] | Binder
615 | ABT1-95-51 (other) VL: DIQMTQSPSSLSASVGDRVTITCRASQPIIRNLRWYQQKPGKAPKLLIYSSSYLEPGVPSRFSGSGSGTDFTLTISSLQPEDFATYHCQQGYRWPVTFGQGTKVEIKR
0.1 | ABT1-95-136 (other) VL: DIQMTQSPSSLSASVGDRVTITCRASQPIVRNLRWYQQKPGKAPKLLIYSSSYLEPGVPSRFSGSGSGTDFTLTISSLHPEDLATYHCQQGYGWPVTFGQGTKVEIKR
0.05 | ABT1-95-163 (other) VL: DIQMTQSPSSLSASVGDRVTITCRASRPIVRNLRWYQQKPGKAPKLLIYSSSYLEPGVPSRFSGSGSGTDFTLTISSLQPEDFATYHCQQGYRWPVTFGQGTKVEIKR
0.05 | ABT1-95-133 (other) VL: DIQMTQSPSSLSASVGDRVTITCRASQPIVRNLRWYQQKPGKAPKLLIYSSSYLEPGVPSRFSGSGSGTDFTLTISSLQPEDFATYHCRQGYRWPVTFGQGTKVEIKR
0.1 | ABT1-95-135 (other) VL: DIQMTQSPSSLSASVGDRVTITCRASQPIVRNLRWYQQKPGKAPKLLIYSSSYLEPGVPSRFSGSGSGTDFTLTISSLQPEDFATYHCQQGYSWPVTFGQGTKVEIKR
0.09 | ABT1-95-137 (other) VL: DIQMTQSPSSLSASVGDRVTITCRASQPIVRNLRWYQQKPGKAPKLLIYSSSYLEPGVPSRFSGSGSGTDFTLTISSLQPEDFATYHCQQGYLWPVTFGQGTKVEIKR
0.15 | ABT1-95-164 (other) VL: DIQMTQSPSSLSASVGDRVTITCRASQPGVRNLRWYQQKPGKAPKLLIYSSSYLEPGVPSRFSGSGSGTDFTLTISSLQPEDFATYHCQQGYRWPVTFGQGTKVEIKR
0.075 | ABT1-95-134 (other) VL: DIQMTQSPSSLSASVGDRVTITCRASQPIVRNLRWYQQKPGKAPKLLIYSSSYLEPGVPSRFSGSGSGTDFTLTISSLQPEDFATYHCAQGYRWPVTFGQGTKVEIKR
0.469 | ABT1-95-167 (other) VL: DIQMTQSPSSLSASVGDRVTITCRASQPIVRNLRWYQQKPGKAPKLLIYSRSYLEPGVPSRFSGSGSGADFTLTISSLQPEDFATYHCQQGYRWPVTFGQGTKVEIKR
0.186 | ABT1-95-162 (other) VL: DIQMTQSPSSLSASVGDRVTITCRASKPIVRNLRWYQQKPGKAPKLLIYSSSYLEPGVPSRFSGSGSGTDFTLTISSLQPEDFATYHCQQGYRWPVTFGQGTKVEIKR
2.3 | ABT1-95-168 (other) VL: DIQMTQSPSSLSASVGDRVTITCRASQPIVRNLRWYQQKPGKAPKLLIYSSSFLEPGVPSRFSGSGSGTDFTLTISSLQPEDFATYHCQQGYRWPVTFGQGTKVEIKR
0.391 | ABT1-95-165 (other) VL: DIQMTQSPSSLSASVGDRVTITCRASQPIVRNMRWYQQKPGKAPKLLIYSSSYLEPGVPSRFSGSGSGTDFTLTISSLQPEDFATYHCQQGYRWPVTFGQGTKVEIKR
0.035 | ABT1-95-166 (other) VL: DIQMTQSPSSLSASVGDRVTITCRASQPIVRNLRWYQQKPGKAPKLLIYSKSYLEPGVPSRFSGSGSGTDFTLTISSLQPEDFATYHCQQGYRWPVTFGQGTKVEIKR
0.044 | ABT1-67 (other) VL: DIQMTQSPSSLSASVGDRVTITCRASQSIHRSLRWYQQKPGKAPKLLIYHASHLQSGVPSRFSGSGSGTDFTLTISSLQPEDFATYYCQQYKRRPSTFGQGTKVEIKR
